Laboratory results: patent US12173322B2, “Genome-edited induced pluripotent stem cells, and cells derived therefrom, and uses thereof” (priority 2020, dated 2024)

T1: ASIC1a (Homo sapiens, UniProt P78348)
T1 sequence (P78348 1-528): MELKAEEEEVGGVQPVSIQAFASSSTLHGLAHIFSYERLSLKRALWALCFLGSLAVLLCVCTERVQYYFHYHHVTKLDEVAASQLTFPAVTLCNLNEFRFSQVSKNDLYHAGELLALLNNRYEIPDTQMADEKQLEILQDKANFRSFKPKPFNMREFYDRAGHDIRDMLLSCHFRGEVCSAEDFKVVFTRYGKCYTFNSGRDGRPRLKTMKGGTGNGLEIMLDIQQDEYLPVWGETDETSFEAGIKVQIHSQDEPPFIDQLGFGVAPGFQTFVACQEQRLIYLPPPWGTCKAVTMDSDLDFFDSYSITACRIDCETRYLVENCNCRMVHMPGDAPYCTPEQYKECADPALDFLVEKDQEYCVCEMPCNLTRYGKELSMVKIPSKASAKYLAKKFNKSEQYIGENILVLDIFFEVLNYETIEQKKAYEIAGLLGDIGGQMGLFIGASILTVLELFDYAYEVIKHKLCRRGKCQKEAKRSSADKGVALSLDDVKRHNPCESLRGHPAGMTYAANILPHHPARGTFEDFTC


Columns and labels:
hiPSC-CMs [1] = experiment: hiPSC-CM calcium analysis (FLIPR Tetra); assay type: cell-based, human; settings: any evaluated concentration (1 nM - 1 μM)
Procedure: hiPSC-CM calcium analysis. Cardiomyocytes were replated (2×10^4 per well) in 384-well plates (CellBIND black with clear bottom, Corning) and cultured for 7 days in RPMI+B27™. On the day of the experiment, the cells were loaded for 1.5 h at 37° C. with FLIPR calcium 4 dye (Molecular Devices) diluted in HBSS pH 7.4. After loading, the plate was transferred to a FLIPR Tetra fluorescent plate reader (Molecular Devices). Calcium transients were measured with excitation wavelengths at 470-495 nm and emission at 515-575 nm. For each plate, the camera gain and intensity were adjusted to optimize signal intensity. Data for each well were expressed as normalized arbitrary fluorescence units. All data were acquired at 0.5 s per read, with baseline measurements for 45 s followed by at least 100 s of data collection after each peptide addition. Peptide solutions (in HBSS pH 7.4) were added to each well to give a final concentration of 1 nM, 10 nM, 100 nM, or 1 μM. Calcium amplitude, maximum calcium, minimum calcium, and spontaneous beating rate were analysed using ScreenWorks software (Molecular Devices) and normalized to baseline measurements.
Replated hiPSC-CMs were loaded with a fluorescent calcium dye and calcium transients were recorded before and after peptide addition.

hiPSC-CMs [2] = experiment: In vitro acidosis injury of hiPSC-CMs, cell death (LDH); assay type: cell-based, human; settings: for cell death: 20 nM overnight
From the text: In vitro ischemia-acidosis injury model with hiPSC-CMs. Differentiated cardiomyocytes were replated on either day 15 or day 17 of differentiation for in vitro ischemia/acidosis assays. At the time of replating, a subset of cells (˜500,000) was set aside for flow cytometry analysis of cardiomyocyte purity (see supplemental methods). For all experiments, only cell preparations with >80% sarcomeric α-actinin-positive cardiomyocytes were used. After re-plating, the cells were maintained for an additional 7 days in RPMI+B27™. To prepare media for ischemia/acidosis injury, 10×HBSS without sodium bicarbonate (Sigma) was diluted to 1× concentration in sterile tissue culture-grade water. Solutions were buffered with either 12 mM HEPES (for pH 7.4 media, Sigma Aldrich) or 12 mM MES (for pH <6.5, Sigma Aldrich) and the pH adjusted accordingly with 1 M NaOH. The medium was sterile filtered with 0.22 μm syringe filters (Millipore). […] For reperfusion experiments, the medium was replaced with HBSS pH 7.4 (with or without peptide) after overnight incubation and cultured for 1 h under normoxic conditions. […] For all cell culture experiments, percent cell death was calculated using low and high controls. For low control (LC), cardiomyocytes were cultured overnight in standard culture media (RPMI+B27™). For high control (HC), cells were cultured in RPMI+B27™ containing 1% Triton™ X-100 (Sigma-Aldrich).
To assess whether ASIC1a inhibition is cardioprotective in hiPSC-CMs, the inventors evaluated cell death in response to in vitro acidosis, induced by culturing hiPSC-CMs in Hank's […] (HBSS) with pH adjusted to pH 7.4, 6.0, or 5.0. […] To mimic ischemia/acidosis in vitro, hiPSC-CMs were incubated overnight in combined hypoxic (0.5% O2) and acidic (pH 5.0) conditions with or without peptide.

[3] = tested on: Langendorff-perfused isolated mouse hearts; experiment: IRI in Langendorff-perfused isolated mouse hearts
Procedure: IRI in Langendorff-perfused mouse hearts. […] Mice (12-14 weeks) were anesthetized via an intraperitoneal injection of 10 mg/mL ketamine and 1.6 mg/mL xylazil. The heart was excised via thoracotomy and the aorta cannulated. […] Temperature was continuously measured with thermocouple needle microprobes (SDR Scientific) and maintained at 37° C. with circulating water baths. Contractile function was measured via a fluid-filled balloon inserted in the left ventricle and connected to a pressure transducer (ADInstruments Pty Ltd.). Coronary flow was measured with an in-line Doppler flow probe positioned above the aortic cannulae (Transonic Systems Inc.). All functional data were recorded on a four-channel MacLab system (ADInstruments Pty Ltd.). Following 15-30 min of equilibration, hearts were switched to ventricular pacing at 420 beats/min (BPM) using a SD9 stimulator (Grass Instruments, Inc.). Baseline measurements were made for 10-20 min followed by 25 min of global normothermic ischemia and 45 min of reperfusion. Pacing was stopped during ischemia and resumed after 15 min of reperfusion. For peptide-treated experimental groups, 1 μM peptide solution was infused with a syringe pump (World Precision Instruments, LLC.) into the buffer, directly upstream of the cannula, at a rate of 1% of CF, for a final working concentration of 10 nM. Peptide was infused for 10 min prior to the onset of ischemia and during the first 15 min of reperfusion.

hiPSC-CMs [4] = experiment: In vitro ischemia/acidosis with reperfusion in hiPSC-CMs, cell death (LDH); assay type: cell-based, human; settings: 10 nM; 18 h hypoxia (0.5% O2) pH 5.0, then 1 h pH 7.4 normoxia
From the text: In vitro ischemia-acidosis injury model with hiPSC-CMs. Differentiated cardiomyocytes were replated on either day 15 or day 17 of differentiation for in vitro ischemia/acidosis assays. At the time of replating, a subset of cells (˜500,000) was set aside for flow cytometry analysis of cardiomyocyte purity (see supplemental methods). For all experiments, only cell preparations with >80% sarcomeric α-actinin-positive cardiomyocytes were used. After re-plating, the cells were maintained for an additional 7 days in RPMI+B27™. To prepare media for ischemia/acidosis injury, 10×HBSS without sodium bicarbonate (Sigma) was diluted to 1× concentration in sterile tissue culture-grade water. Solutions were buffered with either 12 mM HEPES (for pH 7.4 media, Sigma Aldrich) or 12 mM MES (for pH <6.5, Sigma Aldrich) and the pH adjusted accordingly with 1 M NaOH. The medium was sterile filtered with 0.22 μm syringe filters (Millipore). […] For all cell culture experiments, percent cell death was calculated using low and high controls. […]
To assess whether ASIC1a inhibition is cardioprotective in hiPSC-CMs, the inventors evaluated cell death in response to in vitro acidosis, induced by culturing hiPSC-CMs in Hank's […] (HBSS) with pH adjusted to pH 7.4, 6.0, or 5.0. […]

ASIC1a = target: T1, ASIC1a; settings: read-out: IC50, inhibitor of ASIC1a; cited from earlier work

Molecule | calcium amplitudes (hiPSC-CMs [1]) | spontaneous beating rate (hiPSC-CMs [1]) | cardioprotection against cell death (LDH) (hiPSC-CMs [2]; overnight at pH 5.0, even at concentrations as low as 1 nM) | EDP ([3]; after 45 min reperfusion, 10 nM peptide) [mmHg] | reactive hyperaemia during early reperfusion (increased CF) ([3]; first 5 min of reperfusion) | baseline contractile function ([3]; first 10 min of peptide infusion prior to ischemia, 10 nM) | cell death (hiPSC-CMs [4]) | IC50 (ASIC1a) [nM] | cell death (hiPSC-CMs [2]; pH 6.0) | cell death (hiPSC-CMs [2]; pH 7.4)
PcTx1 | Neither Hi1a nor PcTx1 altered | Neither Hi1a nor PcTx1 altered | nearly complete cardioprotection | 33±8 | significant reactive hyperaemia | no effect | blocked | ~1 |  | 
MitTx (protein) chain 1: QIRPAFCYEDPPFFQKCGAFVDSYYFNRSRITCVHFFYGQCDVNQNHFTTMSECNRVCHG chain 2: NLNQFRLMIKCTNDRVWADFVDYGCYCVARDSNTPVDDLDRCCQAQKQCYDEAVKVHGCKPLVMFYSFECRYLASDLDCSGNNTKCRNFVCNCDRTATLCILTATYNRNNHKIDPSRCQ |  |  |  |  |  |  |  |  | increased cell death | increased cell death
